Conditions: Equus caballus, Thermal, CD, Potassium citrate 10 mM, KCl 0.1 mM, reversible: yes, whole UniProt chain shown

B1: Beta-lactoglobulin-1 wild type, P02758 (protein)
chain: MKCLLLALGLALMCGIQATNIPQTMQDLDLQEVAGKWHSVAMAASDISLLDSESAPLRVYIEKLRPTPEDNLEIILREGENKGCAEKKIFAEKTESPAEFKINYLDEDTVFALDTDYKNYLFLCMKNAATPGQSLVCQYLARTQMVDEEIMEKFRRALQPLPGRVQIVPDLTRMAERCRI
In the case of B1, the Tm (pH 3.65) is reported as 47.5 °C, the “unfolding enthalpy (van 't Hoff)” value (pH 3.65) is reported as 37.8 kcal/mol and the Tm (pH 3.71) is reported as 49.4 °C. The “unfolding enthalpy (van 't Hoff)” value (pH 3.71) was 44.2 kcal/mol, the Tm (pH 4) was 58.3 °C and the “unfolding enthalpy (van 't Hoff)” value (pH 4) was 51.5 kcal/mol. For the same protein, the Tm (pH 4.2) was 59.7 °C, the “unfolding enthalpy (van 't Hoff)” value (pH 4.2) was 57.1 kcal/mol and the Tm (pH 4.22) was 61.4 °C. For the same protein, the “unfolding enthalpy (van 't Hoff)” value (pH 4.22) was 57.8 kcal/mol, the Tm (pH 4.23) was 57.3 °C and the “unfolding enthalpy (van 't Hoff)” value (pH 4.23) was 52.7 kcal/mol.
